Measurements taken from patent US20180118848A1 (Regeneron, published 2018).
Changes are numbered by the printed parent chain.

B1: H1H8808P (antibody, human IgG1, V domains shown)
VH: QVQLVESGGGVVQPGRSLRLSCVASGFTFSNYGIHWVRQAPGKGLEWVAVISDDGSFKFYADSVKGRFTISRDNSKNTLYLQMNSLRVEDSAVYHCAKWQHNWNDGGFDYWGQGTLVTVSS
VL: EIVLTQSPDTLSLSPGERATLSCRASQSLSSNYLAWYRQKPGQAPRLLIYGISSRATGIPDRFSGSGSGTDFTLTISRLEPEDFAVYYCQQYGSSPWTFGQGTKVEIK
notes: Human IgG1
B2: BSMUC16/CD3-005 (bispecific antibody, V domains shown)
VH 1: QVQLVESGGGLVKPGGSLRLSCAASGFTFSNYYMSWVRQAPGKGLEWISYISGRGSTIFYADSVKGRITISRDNAKNSLFLQMNSLRAEDTAVYFCVKDRGGYSPYWGQGTLVTVSS
VH 2: EVQLVESGGGLVQPGRSLRLSCAASGFTFDDYSMHWVRQAPGKGLEWVSGISWNSGSIGYADSVKGRFTISRDNAKNSLYLQMNSLRAEDTALYYCAKYGSGYGKFYYYGMDVWGQGTTVTVSS
VL: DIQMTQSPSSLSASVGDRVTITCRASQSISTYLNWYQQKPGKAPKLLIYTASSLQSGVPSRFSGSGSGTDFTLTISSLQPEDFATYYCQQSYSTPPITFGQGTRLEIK
notes: Anti-MUC16 HCVR of H1H8767P, anti-CD3 HCVR CD3-VH-G20, common light chain of H1H8767P; also called anti-MUC16xCD3 bispecific antibody with CD3-VH-G20 arm; REGN4019
B3: H1H8767P (antibody, human IgG1, V domains shown)
VH: B2 VH 1
VL: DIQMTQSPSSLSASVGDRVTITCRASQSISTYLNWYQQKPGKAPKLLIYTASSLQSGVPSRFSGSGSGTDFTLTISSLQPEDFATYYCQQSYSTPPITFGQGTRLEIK
notes: Human IgG1
B4: BSMUC16/CD3-002 (bispecific antibody, V domains shown)
VH 1: B2 VH 1
VH 2: B2 VH 2 with Y99D
VL: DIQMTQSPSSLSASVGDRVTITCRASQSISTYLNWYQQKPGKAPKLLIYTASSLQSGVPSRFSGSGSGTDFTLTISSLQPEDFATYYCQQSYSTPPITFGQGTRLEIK
notes: Anti-MUC16 HCVR of H1H8767P, anti-CD3 HCVR CD3-VH-G5, common light chain of H1H8767P; also called anti-MUC16xCD3 bispecific antibody with CD3-VH-G5 arm
B5: BSMUC16/CD3-001 (bispecific antibody, V domains shown)
VH 1: B2 VH 1
VH 2: B2 VH 2 with I58K, Y108H, M111L
VL: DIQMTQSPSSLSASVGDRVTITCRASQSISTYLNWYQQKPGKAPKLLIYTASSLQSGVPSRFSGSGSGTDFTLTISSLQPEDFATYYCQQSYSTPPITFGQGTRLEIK
notes: Anti-MUC16 HCVR of H1H8767P, anti-CD3 HCVR CD3-VH-G, common light chain of H1H8767P; also called anti-MUC16xCD3 bispecific antibody with CD3-VH-G arm

Columns and labels:
human MUC16 (mucin 16) [1] = target: T1, human MUC16 (mucin 16) (human); experiment: MSD ECL cell binding, RLU ratio OVCAR-3 vs SK-OV-3, 16.7 nM Ab; NS = ratio <2.5-fold
T1 construct: Endogenously expressed on human tumour cell lines; also called hMUC16
Protocol: The ability of anti-MUC16 antibodies to bind specifically to endogenously expressing MUC16 on the human ovarian carcinoma cell line (OVCAR-3) was evaluated via an electrochemiluminescence based detection assay (Meso Scale Discovery (MSD), Rockville, Md.). […] Detached cells were then washed once in 1×PBS supplemented with Ca²⁺/Mg²⁺ and counted (Cellometer Auto T4 cell counter, Nexcelom Bioscience, Lawrence, Mass.). Approximately 1.0×10⁴ cells were plated in MULTI-ARRAY 96-well carbon electrode plates (MSD) and incubated for 1 h at 37° C. […] Next, serial dilutions of anti-MUC16 or control antibodies (0.85 pM-50 nM) and no-antibody buffer controls were added to the plate-bound cells and incubated for 1 h at room temperature (RT). […] Plate-bound antibodies were detected with a SULFO-TAG™-conjugated anti-human kappa light chain antibody (Regeneron) or a SULFO-TAG™-conjugated anti-mouse IgG antibody (Jackson Immunoresearch, West Grove, Pa.) for 1 h at RT. Post-wash, plates were developed with Read Buffer (MSD) according to manufacturer's protocol and luminescent signals were recorded with a SECTOR Imager 6000 (MSD) instrument.
(§1) Luminescence intensity, measured in relative light units (RLU), for the two cell lines was recorded to indicate the binding intensity of each antibody.

human MUC16 (mucin 16) [2] = target: T1, human MUC16 (mucin 16); experiment: MSD ECL cell binding, RLU ratio OVCAR-3 vs SK-OV-3, 1.9 nM Ab
Protocol: The ability of anti-MUC16 antibodies to bind specifically to endogenously expressing MUC16 on the human ovarian carcinoma cell line (OVCAR-3) was evaluated via an electrochemiluminescence based detection assay (Meso Scale Discovery (MSD), Rockville, Md.). […] Detached cells were then washed once in 1×PBS supplemented with Ca²⁺/Mg²⁺ and counted (Cellometer Auto T4 cell counter, Nexcelom Bioscience, Lawrence, Mass.). Approximately 1.0×10⁴ cells were plated in MULTI-ARRAY 96-well carbon electrode plates (MSD) and incubated for 1 h at 37° C. […] Next, serial dilutions of anti-MUC16 or control antibodies (0.85 pM-50 nM) and no-antibody buffer controls were added to the plate-bound cells and incubated for 1 h at room temperature (RT). Plates were then washed to remove the unbound antibodies using an AquaMax2000 plate washer (MDS Analytical Technologies, Sunnyvale, Calif.). Plate-bound antibodies were detected with a SULFO-TAG™-conjugated anti-human kappa light chain antibody (Regeneron) or a SULFO-TAG™-conjugated anti-mouse IgG antibody (Jackson Immunoresearch, West Grove, Pa.) for 1 h at RT. Post-wash, plates were developed with Read Buffer (MSD) according to manufacturer's protocol and luminescent signals were recorded with a SECTOR Imager 6000 (MSD) instrument.
as §1

human MUC16 (mucin 16) [3] = target: T1, human MUC16 (mucin 16); experiment: cell-based or functional assay
human MUC16 (mucin 16) [4] = target: T1, human MUC16 (mucin 16); experiment: cell-based or functional assay; remark: listed apart in the source
human MUC16 (mucin 16) [5] = target: T1, human MUC16 (mucin 16); experiment: FACS binding titration on OVCAR3-Luc (MUC16+) cells
Protocol: (§2) A. Briefly, flow cytometric analysis (i.e. fluorescence-activated cell sorting, or FACS) was utilized to determine binding of bispecific antibodies to Jurkat cells or cells expressing human MUC16, followed by detection with a phycoerythrin (PE)-labeled or APC-labeled anti-human IgG antibody. […] After incubation, the cells were washed twice with cold PBS containing 1% filtered FBS and a PE-conjugated or APC-conjugated anti-human secondary antibody was added to the cells and incubated for an additional 30 minutes. Wells containing no antibody or secondary only were also used as controls. After incubation, cells were washed, re-suspended in 200 μL cold PBS containing 1% filtered FBS and analyzed by flow cytometry on a BD FACS Canto II.
B. In separate experiments with analogous conditions to that described above, flow cytometric analysis (or FACS) was utilized to determine binding of select bispecific antibodies to Jurkat cells, PEO-1, OVCAR3-Luc and cynomolgus T cells. […]
For FACS analysis, cells were gated by forward scatter height vs. forward scatter area for single events selection, followed by side and forward scatters. The EC50 for cell binding titration was determined using PRISM™ software (GraphPad Software, Inc., La Jolla, Calif.). Values were calculated using 4-parameter non-linear regression analysis. […]

human MUC16 (mucin 16) [6] = target: T1, human MUC16 (mucin 16); experiment: FACS binding titration on PEO-1 (MUC16+) cells
Protocol: as §2
B. In separate experiments with analogous conditions to that described above, flow cytometric analysis (or FACS) was utilized to determine binding of select bispecific antibodies to Jurkat cells, PEO-1, OVCAR3-Luc and cynomolgus T cells. For the titration analysis, serial dilution of selected MUC16×CD3 bispecific antibodies, a first isotype control antibody (a human chimeric IgG4 antibody that binds an irrelevant human antigen with no cross-reactivity to human or cynomolgus CD3) and a second isotype control antibody (a human chimeric IgG4 antibody that binds an irrelevant human antigen with no cross-reactivity to human MUC16), ranging from 66.6 nM to 0.001 nM.
For FACS analysis, cells were gated by forward scatter height vs. forward scatter area for single events selection, followed by side and forward scatters. The EC50 for cell binding titration was determined using PRISM™ software (GraphPad Software, Inc., La Jolla, Calif.). Values were calculated using 4-parameter non-linear regression analysis. (Liu, J., et al. 2005, Biotechnol Letters 27:1821-1827).

human MUC16 (mucin 16) [7] = target: T1, human MUC16 (mucin 16); experiment: FACS binding titration on OVCAR3 (MUC16+) cells
human MUC16 (mucin 16) [8] = target: T1, human MUC16 (mucin 16); experiment: cell-based or functional assay; remark: listed apart in the source

Row | Ratio anti-MUC16 Binding OVCAR-3/SK-OV-3 (human MUC16 (mucin 16) [1]) [ratio] | Ratio anti-MUC16 Binding OVCAR-3/SK-OV-3 (human MUC16 (mucin 16) [2]) [ratio] | PEO-1 cell depletion EC50 (human MUC16 (mucin 16) [3]) [nM] | OVCAR3-Luc cell depletion EC50 (human MUC16 (mucin 16) [4]) [nM] | EC50 (human MUC16 (mucin 16) [5]) [nM] | EC50 (human MUC16 (mucin 16) [6]) [nM] | EC50 (human MUC16 (mucin 16) [7]) [nM] | OVCAR3 cell depletion EC50 (human MUC16 (mucin 16) [8]) [nM] | Binder
1 | < 2.5 | 4 |  |  |  |  |  |  | B1
2 |  |  | 0.0774 | 0.0516 | 1.47 | 2.63 |  |  | B2
3 | < 2.5 | 4 |  |  |  |  |  |  | B3
4 |  |  | 0.0675 |  |  | 3.13 | 2.69 | 0.0306 | B4
5 |  |  | 0.0256 | 0.0154 | 1.32 | 3.02 | 1.2 | 0.0224 | B5
